What follows are binders tested against T1, human IL-2Rβ (CD122 protein, Fc Tag) (27-239) (human, UniProt P14784 27-239) (assay: pH-dependent ELISA (Examples 9-12)).
T1 construct: range 27-239; Bought protein; also called IL-2Rβ subunit; IL-2Rβ-Fc; not shown: Fc Tag of the bought protein (ACRObiosystems ILB-H5253)
T1 sequence (looked up): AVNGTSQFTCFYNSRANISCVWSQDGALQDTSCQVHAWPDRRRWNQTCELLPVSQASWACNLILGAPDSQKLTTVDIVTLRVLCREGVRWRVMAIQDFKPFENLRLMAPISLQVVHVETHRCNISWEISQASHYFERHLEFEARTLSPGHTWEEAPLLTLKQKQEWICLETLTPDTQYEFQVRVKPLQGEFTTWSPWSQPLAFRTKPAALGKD
Procedure: For each peptide to be assayed, 16 ELISA plate wells were coated with neutravidin ([…] in PBS pH7.2) at 50 μL/well. The coated wells were incubated at 25° C. for at least 1 h.
The neutravidin was removed from each well. Three-hundred (300) μL of blocking buffer (1×PBS pH 7.2, 1% BSA) was added to each well of the neutravidin-coated plates. All plates were covered and maintained at 25° C. for 1 h or overnight at 4° C.
The biotinylated peptides were diluted to 1 μM in PBT pH 7.2 buffer and 50 uL was added to the appropriate 16 wells (8 for each binding pH). The plates were incubated at 25° C. for at least 1 h.

**Q.** Which “decrease in binding at pH 7.5 compared to pH 6.0” value (“decrease in binding” for short) does the source give for EQTRSGYACRTAQVGELCDL [SEQ ID NO 535] here?
**A.** Its value is over 15%.

**Q.** Which “decrease in binding” value does the source give for NLRQNCRDAPVGELCDLEWI [SEQ ID NO 501] here?
**A.** Its value is over 15%.

**Q.** Which “decrease in binding” value does the source give for SWVNNCRMAQVGELCDLPNW [SEQ ID NO 460] here?
**A.** Its value is over 15%.

**Q.** How did the “decrease in binding” value turn out when HECRFAQVGELCDL [SEQ ID NO 418] was run?
**A.** Its value is over 15%.

**Q.** KDCRTALIGDLCDLTLHLGG [SEQ ID NO 425] was tested. Which “decrease in binding” value did it give?
**A.** Its value is over 15%.

**Q.** How did the “decrease in binding” value turn out when KACSIAQVGDLCEIYGFDDA [SEQ ID NO 421] was run?
**A.** Its value is over 15%.

**Q.** Which “decrease in binding” value does the source give for EYFSHDQDCQTAQLGELCKM [SEQ ID NO 471] here?
**A.** Its value is over 15%.

**Q.** For FIAQKCRLAKVGELCDLGYS [SEQ ID NO 500], which “decrease in binding” value is on record?
**A.** The value was over 15%.

**Q.** How did the “decrease in binding” value turn out when LLCRMAHLGELCDL [SEQ ID NO 448] was run?
**A.** The value was over 15%.

**Q.** How did the “decrease in binding” value turn out when GLNPMIPGCQMAQVGELCEL [SEQ ID NO 463] was run?
**A.** The value was over 15%.

**Q.** With QNCSTAKVGELCDLLMEGTE [SEQ ID NO 503] as the binder, how does the “decrease in binding” value read?
**A.** The value was over 15%.

**Q.** Which “decrease in binding” value does the source give for WGRQECRFANVGDLCDVSNY [SEQ ID NO 491] here?
**A.** The value was over 15%.

**Q.** Which “decrease in binding” value does the source give for QVLKNCRLAHIGELCYLSER [SEQ ID NO 428] here?
**A.** Its value is over 15%.

**Q.** How did the “decrease in binding” value turn out when VDCWIAQLGELCELEDGRRQ [SEQ ID NO 524] was run?
**A.** Its value is over 15%.

**Q.** With YPCRMADVGELCDL [SEQ ID NO 569] as the binder, how does the “decrease in binding” value read?
**A.** The value was over 15%.

**Q.** How did the “decrease in binding” value turn out when RTMKQCSIAQVGELCDLAVT [SEQ ID NO 429] was run?
**A.** Its value is over 15%.

**Q.** YDCQKAQLGELCDLRYSVRD [SEQ ID NO 536] was tested. Which “decrease in binding” value did it give?
**A.** Its value is over 15%.

**Q.** With KDCRLAYVGELCDLNRSDTI [SEQ ID NO 423] as the binder, how does the “decrease in binding” value read?
**A.** Its value is over 15%.

**Q.** With GVKDGWEDCGIAQVGELCVL [SEQ ID NO 402] as the binder, how does the “decrease in binding” value read?
**A.** The value was over 15%.

**Q.** For QDCRKANVGELCYLDWDSPT [SEQ ID NO 476], which “decrease in binding” value is on record?
**A.** The value was over 15%.

**Q.** With SVWQECSMAQVGDLCELHIG [SEQ ID NO 495] as the binder, how does the “decrease in binding” value read?
**A.** Its value is over 15%.

**Q.** For QDCRMAQVGHLCDL [SEQ ID NO 481], which “decrease in binding” value is on record?
**A.** Its value is over 15%.

**Q.** How did the “decrease in binding” value turn out when KSCARAQVGELCYIEGAEDA [SEQ ID NO 430] was run?
**A.** The value was over 15%.

**Q.** VTGWTYRDCRIANVGDLCEL [SEQ ID NO 507] was tested. Which “decrease in binding” value did it give?
**A.** The value was over 15%.

**Q.** How did the “decrease in binding” value turn out when QDCRLAHLGDLCDLWSPRQN [SEQ ID NO 477] was run?
**A.** Its value is over 15%.

**Q.** YACRFAHVGDLCDL [SEQ ID NO 534] was tested. Which “decrease in binding” value did it give?
**A.** Its value is over 15%.

**Q.** For QDGAKLKECRVAQVGELCEF [SEQ ID NO 427], which “decrease in binding” value is on record?
**A.** The value was over 15%.

**Q.** HQCRFAHVGELCDLFVFESY [SEQ ID NO 419] was tested. Which “decrease in binding” value did it give?
**A.** Its value is over 15%.

**Q.** With YLCQVAGVGELCDLEESGRN [SEQ ID NO 566] as the binder, how does the “decrease in binding” value read?
**A.** Its value is over 15%.

**Q.** For LRCRMAQVGDLCDLDRAWDW [SEQ ID NO 454], which “decrease in binding” value is on record?
**A.** The value was over 15%.

**Q.** Which “decrease in binding” value does the source give for QPCRNAHLGQLCDLQTWTNS [SEQ ID NO 505] here?
**A.** The value was over 15%.

**Q.** Which “decrease in binding” value does the source give for WQCRWAQVGELCDLSSENDN [SEQ ID NO 531] here?
**A.** Its value is over 15%.

**Q.** HDCWFAKLGELCDLRQMSFV [SEQ ID NO 416] was tested. Which “decrease in binding” value did it give?
**A.** Its value is over 15%.

**Q.** How did the “decrease in binding” value turn out when SDCSVANVGDLCNL [SEQ ID NO 515] was run?
**A.** Its value is over 15%.

**Q.** TWAYDCRTAEVGELCDLPVQ [SEQ ID NO 551] was tested. Which “decrease in binding” value did it give?
**A.** The value was over 15%.

**Q.** How did the “decrease in binding” value turn out when LSCSIAQVGELCDL [SEQ ID NO 456] was run?
**A.** The value was over 15%.

**Q.** With EDCWMAQVGQLCDL [SEQ ID NO 403] as the binder, how does the “decrease in binding” value read?
**A.** Its value is over 15%.

**Q.** FECWIAQVGELCDL [SEQ ID NO 411] was tested. Which “decrease in binding” value did it give?
**A.** The value was over 15%.

**Q.** YDCRMAKVGDLCDLWSVWGR [SEQ ID NO 548] was tested. Which “decrease in binding” value did it give?
**A.** Its value is over 15%.

**Q.** QDCRMAHLGELCTL [SEQ ID NO 480] was tested. Which “decrease in binding” value did it give?
**A.** The value was over 50%.

**Q.** How did the “decrease in binding” value turn out when TYAKLVNYCWTAQLGELCYL [SEQ ID NO 461] was run?
**A.** The value was over 15%.

**Q.** For LLSYPCRMAQVGELCDIAMK [SEQ ID NO 570], which “decrease in binding” value is on record?
**A.** Its value is over 15%.

**Q.** VLCRIAQVGQLCEL [SEQ ID NO 526] was tested. Which “decrease in binding” value did it give?
**A.** The value was over 15%.

**Q.** With DEMQDCQIAQVGELCDLGLE [SEQ ID NO 470] as the binder, how does the “decrease in binding” value read?
**A.** Its value is over 15%.

**Q.** How did the “decrease in binding” value turn out when AVKRFRQDCRTAPVGTLCDL [SEQ ID NO 485] was run?
**A.** Its value is over 15%.

**Q.** VLEVLRQECRMAQVGELCDL [SEQ ID NO 494] was tested. Which “decrease in binding” value did it give?
**A.** Its value is over 15%.

**Q.** How did the “decrease in binding” value turn out when GYEPIMRACRNAQVGDLCDL [SEQ ID NO 506] was run?
**A.** Its value is over 15%.

**Q.** For LDCRIAPLGELCDMFISAFN [SEQ ID NO 436], which “decrease in binding” value is on record?
**A.** The value was over 15%.

**Q.** How did the “decrease in binding” value turn out when GRFYPCNMAQVGELCELMEY [SEQ ID NO 568] was run?
**A.** The value was over 15%.

**Q.** For LECRLARLGDLCYL [SEQ ID NO 443], which “decrease in binding” value is on record?
**A.** Its value is over 15%.

**Q.** How did the “decrease in binding” value turn out when LEFMWIQDCGMAEVGELCEL [SEQ ID NO 468] was run?
**A.** The value was over 15%.

**Q.** WPMSQFQKCATAQVGELCEL [SEQ ID NO 499] was tested. Which “decrease in binding” value did it give?
**A.** The value was over 15%.

These binders were tested against T1, human IL-2Rβ (CD122 protein, Fc Tag) … (assay: IC50, method not told in the paragraph).

**Q.** YDCRIAQVGELCDL (also called Peptide E) [IL-2Rβ ligand SEQ ID NO: 58] was tested. Which IC50 did it give?
**A.** Its IC50 is under 10 µM.

Source: US20230192767A1 (MEDIKINE, published 2023)
